± gives the standard deviation of the averaged measurements.
test system: ATP; test: switch fluorescence ratio, 500 uM ATP over buffer (Cy3 cluster intensity, sum of 5 cycles each) (fold (ratio)); higher = stronger signal-on switching upon ATP binding; sequences stand for … in TCGTCGGCAGCGTCAGATGTGTATAAGAGACAGTTTTTTTTTTTTTTTTTTTTTTTTT…TC; details: aptamer strand: ATP DNA aptamer (quencher-CACCTGGGGGAGTATTGCGGAGGAAGG + anchor), 100 nM annealed; ATP concentration: 500 uM
Outline: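 Imaging in selection buffer was followed by imaging after 15 min with 500 uM ATP at 22 °C, for Cy3-labelled switching-strand clusters annealed to 100 nM quencher-labelled ATP aptamer on a modified Illumina MiSeq flow-cell. Five of these buffer/ATP cycles ran, separated by NaOH stripping and re-annealing. The fluorescence ratio per cluster is summed target-cycle over summed buffer-cycle Cy3 intensity, averaged per switch-domain sequence; clusters outside 100-1000 RFU were removed.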
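Further: ATP exposure 15 min at 22 °C before imaging.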

Sequence | switch fluorescence ratio
GGGCATAGAT | 1.03 ± 0.05
GGGCATAGGA | 1.03 ± 0.097
GGGCATATGG | 1.05 ± 0.015
GGGCATCGGG | 0.991 ± 0.013
GGGCATGAAT | 0.965 ± 0.016
GGGCATGCAG | 0.966 ± 0.018
GGGCATGCGT | 0.973 ± 0.042
GGGCATGTTA | 0.9692 ± 0.0032
GGGCATTGAA | 0.9895 ± 0.0022
GGGCATTGCG | 0.9667 ± 0.0091
GGGCATTGTT | 1.02 ± 0.043
GGGCCAGGGC | 1.02 ± 0.02
GGGCCAGTGC | 1.03 ± 0.043
GGGCCAGTTG | 1.0149 ± 0.00024
GGGCCCGGGT | 0.994 ± 0.037
GGGCCCTGGG | 0.994 ± 0.059
GGGCCCTTTT | 0.976 ± 0.019
GGGCCGGTTT | 1 ± 0.026
GGGCCTGGTA | 0.973 ± 0.03
GGGCCTTGAG | 1.031 ± 0.008
GGGCCTTTAT | 1.017 ± 0.0089
GGGCGATGGG | 1.02 ± 0.084
GGGCGCCCCA | 0.976 ± 0.013
GGGCGCCCCC | 1.08 ± 0.14
GGGCGCGTAT | 1.03 ± 0.045

Sequence | switch fluorescence ratio
GGGCGGGCTG | 1.006 ± 0.0084
GGGCGGGTCT | 1.01 ± 0.046
GGGCGGGTTG | 1 ± 0.0036
GGGCGGTCTT | 1.06 ± 0.097
GGGCGGTTTT | 0.993 ± 0.043
GGGCGTAAGG | 1.01 ± 0.047
GGGCGTGGTT | 0.965 ± 0.017
GGGCGTGTTT | 1 ± 0.031
GGGCGTTCTG | 1.04 ± 0.023
GGGCGTTTCA | 1.02 ± 0.02
GGGCTAAAGA | 1.01 ± 0.013
GGGCTAAGAG | 1.05 ± 0.038
GGGCTAAGGC | 0.9923 ± 0.0037
GGGCTAGGCT | 0.9684 ± 0.006
GGGCTAGGGA | 0.972 ± 0.041
GGGCTAGTGG | 1.02 ± 0.036
GGGCTAGTTC | 1.05 ± 0.077
GGGCTCCATG | 0.9825 ± 0.0044
GGGCTGGATG | 0.9932 ± 0.0047
GGGCTGGGTA | 0.993 ± 0.018
GGGCTGGTTT | 0.981 ± 0.02
GGGCTTAAGG | 0.97 ± 0.015
GGGCTTGGAG | 1.012 ± 0.00086
GGGCTTGGCT | 0.9851 ± 0.0065
GGGGAAAAGG | 1 ± 0.017

Sequence | switch fluorescence ratio
GGGGAAAATA | 1.007 ± 0.0048
GGGGAAACAA | 0.99 ± 0.024
GGGGAAACAT | 1.08 ± 0.013
GGGGAAACGG | 1.06 ± 0.085
GGGGAAGAGG | 0.983 ± 0.011
GGGGAAGCCG | 1.01 ± 0.027
GGGGAAGGTA | 0.978 ± 0.019
GGGGAATAAG | 1.01 ± 0.053
GGGGAATGCA | 1.01 ± 0.034
GGGGAATGCG | 1.01 ± 0.0065
GGGGAATTAT | 1.03 ± 0.0058
GGGGACAAGT | 1.0212 ± 0.00058
GGGGACATAA | 0.997 ± 0.011
GGGGACATGG | 1.07 ± 0.11
GGGGACCGCG | 0.969 ± 0.016
GGGGACCTAC | 1.08 ± 0.022
GGGGACGAGG | 0.999 ± 0.028
GGGGACGCTG | 0.98 ± 0.012
GGGGACGGAT | 1.04 ± 0.052
GGGGACTGTA | 1.04 ± 0.061
GGGGAGATGT | 1.01 ± 0.014
GGGGAGGGGG | 0.999 ± 0.044
GGGGAGGTAG | 0.985 ± 0.014
GGGGAGTAGG | 1.03 ± 0.049
GGGGAGTAGT | 1.01 ± 0.024

Sequence | switch fluorescence ratio
GGGGAGTTTA | 1.027 ± 0.0017
GGGGAGTTTG | 1.01 ± 0.064
GGGGATAACA | 1.028 ± 0.00063
GGGGATAGAG | 1.01 ± 0.015
GGGGATAGTG | 0.997 ± 0.011
GGGGATATGC | 0.995 ± 0.048
GGGGATGAAA | 0.989 ± 0.011
GGGGATGCAT | 1.01 ± 0.059
GGGGATGGGA | 1.01 ± 0.033
GGGGATTAGT | 0.997 ± 0.043
GGGGATTGAA | 0.994 ± 0.018
GGGGCAAGAT | 1.52 ± 0.78
GGGGCACATT | 0.9885 ± 0.0046
GGGGCAGACT | 1.03 ± 0.018
GGGGCAGGAT | 1.22 ± 0.34
GGGGCAGGGT | 1.03 ± 0.064
GGGGCAGTAG | 1.04 ± 0.046
GGGGCATAGG | 0.9777 ± 0.0015
GGGGCCCATG | 0.992 ± 0.021
GGGGCCGGCG | 1.08 ± 0.11
GGGGCCGTTT | 0.973 ± 0.03
GGGGCGACTA | 1.03 ± 0.052
GGGGCGAGAG | 0.9939 ± 0.0046
GGGGCGAGTG | 1 ± 0.035
GGGGCGCAGG | 0.993 ± 0.011

Sequence | switch fluorescence ratio
GGGGCGCCTG | 1.01 ± 0.048
GGGGCGCGAC | 0.993 ± 0.085
GGGGCGGATT | 0.984 ± 0.014
GGGGCGGCCT | 0.979 ± 0.04
GGGGCGGGCC | 0.971 ± 0.021
GGGGCGGTCC | 1.04 ± 0.043
GGGGCGTACG | 1.05 ± 0.2
GGGGCGTCGT | 1.02 ± 0.029
GGGGCGTCTG | 1.04 ± 0.06
GGGGCGTTAG | 1.002 ± 0.0065
GGGGCTAGCG | 0.99 ± 0.02
GGGGCTCAGA | 0.993 ± 0.011
GGGGCTCTGT | 1 ± 0.012
GGGGCTTAGT | 1.03 ± 0.017
GGGGCTTATC | 1.03 ± 0.043
GGGGGAACCG | 0.994 ± 0.08
GGGGGAACGC | 0.998 ± 0.054
GGGGGAAGAG | 1.01 ± 0.021
GGGGGAAGGA | 0.995 ± 0.036
GGGGGAATA | 0.993 ± 0.051
GGGGGAATGC | 1.07 ± 0.11
GGGGGACTGG | 0.981 ± 0.019
GGGGGACTTA | 0.998 ± 0.043
GGGGGAGCCC | 0.9896 ± 0.0091
GGGGGAGGGA | 0.997 ± 0.04

Sequence | switch fluorescence ratio
GGGGGAGTAA | 1.05 ± 0.15
GGGGGAGTCA | 1 ± 0.056
GGGGGAGTCG | 1.02 ± 0.048
GGGGGATATC | 0.994 ± 0.06
GGGGGATATG | 0.984 ± 0.027
GGGGGATGAT | 0.9889 ± 0.007
GGGGGATGGG | 0.998 ± 0.032
GGGGGCAATC | 2.84 ± 0.54
GGGGGCACGG | 1.01 ± 0.012
GGGGGCACTT | 1.008 ± 0.0045
GGGGGCCCCG | 1 ± 0.013
GGGGGCCGGA | 1.01 ± 0.048
GGGGGCCGGC | 1.028 ± 0.0031
GGGGGCCTAA | 1 ± 0.028
GGGGGCCTGG | 0.979 ± 0.019
GGGGGCGCCG | 1.01 ± 0.097
GGGGGCGCGT | 1.02 ± 0.038
GGGGGCGGGA | 1.02 ± 0.059
GGGGGCGGTA | 1.02 ± 0.059
GGGGGCGTAC | 1.06 ± 0.083
GGGGGCGTAT | 1.051 ± 0.0072
GGGGGCGTTT | 1.01 ± 0.045
GGGGGCTTCG | 0.992 ± 0.048
GGGGGCTTTT | 1.01 ± 0.034
GGGGGGAACT | 0.987 ± 0.022

Sequence | switch fluorescence ratio
GGGGGGAATG | 1 ± 0.03
GGGGGGAGCA | 0.992 ± 0.018
GGGGGGAGGT | 1.02 ± 0.065
GGGGGGATCC | 0.996 ± 0.044
GGGGGGATTA | 0.992 ± 0.035
GGGGGGCAGT | 1 ± 0.023
GGGGGGCATG | 0.992 ± 0.035
GGGGGGCCAG | 1.01 ± 0.04
GGGGGGCCCT | 0.996 ± 0.028
GGGGGGCCTG | 0.982 ± 0.038
GGGGGGCTGC | 0.978 ± 0.036
GGGGGGGAAG | 1.01 ± 0.087
GGGGGGGACA | 0.984 ± 0.031
GGGGGGGACC | 0.999 ± 0.017
GGGGGGGAGG | 0.993 ± 0.029
GGGGGGGAGT | 0.995 ± 0.02
GGGGGGGCAG | 0.986 ± 0.017
GGGGGGGCTA | 0.9868 ± 0.0035
GGGGGGGCTG | 1.06 ± 0.4
GGGGGGGGA | 1.05 ± 0.026
GGGGGGGGTC | 0.989 ± 0.034
GGGGGGTACG | 1 ± 0.05
GGGGGGTCAA | 0.967 ± 0.033
GGGGGGTGCG | 0.999 ± 0.019
GGGGGGTTGC | 0.967 ± 0.035

Sequence | switch fluorescence ratio
GGGGGTAGCT | 1 ± 0.017
GGGGGTATAG | 1.02 ± 0.022
GGGGGTATTT | 1 ± 0.018
GGGGGTCACG | 0.978 ± 0.028
GGGGGTCCAT | 0.954 ± 0.031
GGGGGTCCGA | 0.9855 ± 0.0042
GGGGGTCCTA | 0.977 ± 0.0099
GGGGGTCTTT | 0.99 ± 0.023
GGGGGTGAAC | 0.98 ± 0.029
GGGGGTGACA | 0.9931 ± 0.0073
GGGGGTGCAT | 0.9638 ± 0.0088
GGGGGTGGAT | 1 ± 0.025
GGGGGTGGCA | 0.998 ± 0.042
GGGGGTGGCG | 0.973 ± 0.021
GGGGGTGGGG | 1.01 ± 0.037
GGGGGTGGTG | 0.988 ± 0.038
GGGGGTGTAA | 0.986 ± 0.018
GGGGGTTAAG | 0.988 ± 0.029
GGGGGTTAAT | 1.013 ± 0.0037
GGGGGTTGCG | 0.979 ± 0.015
GGGGTAAAAC | 1.02 ± 0.023
GGGGTAAGAA | 0.981 ± 0.034
GGGGTAATTT | 1.02 ± 0.035
GGGGTACAAT | 1.07 ± 0.041
GGGGTACCAC | 1.31 ± 0.4
